53 sequences from the supplement of paper PMC11780869 can be followed below.

For this data set, the system named is Bacillus subtilis. Put plainly: cleaved RNA product abundance (RNA/gDNA barcode ratio) relative to median wild-type variant (ratio to wild type); higher = more accumulation of the downstream cleavage product. The note with it: cleavage site: cggR-gapA (positions -7 to +36 mutated). Put shortly:
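Sequencing of barcodes from gel-selected, reverse-transcribed cleaved RNA and from genomic DNA, with UMI collapsing, yielded a per-construct RNA:gDNA ratio. Scaled to the median construct with the unmutated site, this ratio is the cleaved product abundance. The barcoded reporters (truncated aprE or tetM mRNAs with mutagenized RNase Y cleavage-site windows) were integrated into the B. subtilis chromosome, and cultures grew in LB at 37°C from OD600 0.0003 to 0.3.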

[1] abbreviates: experiment (reporter, strain, medium): exp 4a: truncated aprE reporter, strain BJT201 with 2% xylose (RNase J1 expressed).
The mark [2] stands for this setting: experiment (reporter, strain, medium): exp 2b: truncated aprE reporter, strain BJT200.
[3] abbreviates: experiment (reporter, strain, medium): exp 6: tetM reporter, strain 168.

On to “ACAGACGAAGGAGCCGCAAAGAAGTTATTAAGGGATGAATAATCACTCAATATAAAGATCTCTCACTTATTTAAA”, for which, under setting [1], the “cleaved RNA product abundance” value turned out to be 0.0885.

Take “ACAGACGAAGGAGCCGCAAAGAAGTTATTAAGGGATGAATAATCACTCAATATAAATACCTCTCACTTATTTAAA”: the “cleaved RNA product abundance” value under setting [1] stood at 0.061.

Take “ACAGACGAAGGAGCCGCAAAGAAGTTATTAAGGGATGAATAATCACTCAATATAAATAGCTCTCACTTATTTAAA”: the “cleaved RNA product abundance” value under setting [1] was determined as 0.101.

As for “ACAGACGAAGGAGCCGCAAAGAAGTTATTAAGGGATGAATAATCACTCAATATAAATATCTCTCACTTATTTAAA”, the “cleaved RNA product abundance” value by setting is: under setting [2], 0.111; under setting [1], 0.14; under setting [3], 0.0875.

“ACAGACGAAGGAGCCGCAAAGAAGTTATTAAGGGATGAATAATCACTCAATATAAATTTCTCTCACTTATTTAAA”: the “cleaved RNA product abundance” value under setting [1] amounted to 0.112.

For the sequence “ACAGACGAAGGAGCCGCAAAGAAGTTATTAAGGGATGAATAATCACTCAATATAATTATCTCTCACTTATTTAAA”, the “cleaved RNA product abundance” value under setting [1] was found to be 0.0768.

Turning to “ACAGACGAAGGAGCCGCAAAGAAGTTATTAAGGGATGAATAATCACTCAATATACATATCTCTCACTTATTTAAA”, the “cleaved RNA product abundance” value under setting [1] came out at 0.109.

For “ACAGACGAAGGAGCCGCAAAGAAGTTATTAAGGGATGAATAATCACTCAATATAGATATCTCTCACTTATTTAAA”, the “cleaved RNA product abundance” value under setting [2] was found to be 0.143 and the “cleaved RNA product abundance” value under setting [1] was 0.116.

As to “ACAGACGAAGGAGCCGCAAAGAAGTTATTAAGGGATGAATAATCACTCAATATATATATCTCTCACTTATTTAAA”, the “cleaved RNA product abundance” value under setting [1] turned out to be 0.132.

Consider “ACAGACGAAGGAGCCGCAAAGAAGTTATTAAGGGATGAATAATCACTCAATATTAATATCTCTCACTTATTTAAA”, for which the “cleaved RNA product abundance” value under setting [1] came to 0.0358.

As to “ACAGACGAAGGAGCCGCAAAGAAGTTATTAAGGGATGAATAATCACTCAATCTAAATATCTCTCACTTATTTAAA”, the “cleaved RNA product abundance” value under setting [1] worked out at 0.0379.

Consider “ACAGACGAAGGAGCCGCAAAGAAGTTATTAAGGGATGAATAATCACTCACTATAAATATCTCTCACTTATTTAAA”, for which the “cleaved RNA product abundance” value was found to be 0.0967 under setting [2] and 0.0806 under setting [1].

For “ACAGACGAAGGAGCCGCAAAGAAGTTATTAAGGGATGAATAATCACTCAGTATAAATATCTCTCACTTATTTAAA”, the “cleaved RNA product abundance” value under setting [1] was 0.0778.

Turning to “ACAGACGAAGGAGCCGCAAAGAAGTTATTAAGGGATGAATAATCACTCGATATAAATATCTCTCACTTATTTAAA”, the “cleaved RNA product abundance” value under setting [1] was 0.0689.

On to “ACAGACGAAGGAGCCGCAAAGAAGTTATTAAGGGATGAATAATCACTCTATATAAATATCTCTCACTTATTTAAA”, for which the “cleaved RNA product abundance” value runs as follows: under setting [2], 0.0929; under setting [1], 0.155.

For the sequence “ACAGACGAAGGAGCCGCAAAGAAGTTATTAAGGGATGAATAATCACTGAATATAAATATCTCTCACTTATTTAAA”, the “cleaved RNA product abundance” value reads like this: under setting [2], 0.0838; under setting [1], 0.0697.

With “ACAGACGAAGGAGCCGCAAAGAAGTTATTAAGGGATGAATAATCACTTAATATAAATATCTCTCACTTATTTAAA”, the “cleaved RNA product abundance” value was found to be 0.584 under setting [2] and 0.498 under setting [1].

On to “ACAGACGAAGGAGCCGCAAAGAAGTTATTAAGGGATGAATAATCAGTCAATATAAATATCTCTCACTTATTTAAA”, for which the “cleaved RNA product abundance” value under setting [1] is 0.0967.

For “ACAGACGAAGGAGCCGCAAAGAAGTTATTAAGGGATGAATAATCATTCAATATAAATATCTCTCACTTATTTAAA”, the “cleaved RNA product abundance” value by setting is: under setting [2], 0.171; under setting [1], 0.295.

Consider “ACAGACGAAGGAGCCGCAAAGAAGTTATTAAGGGATGAATAATCCAACAATATAAATATCTCTCACTTATTTAAA”, for which the “cleaved RNA product abundance” value under setting [2] amounted to 0.184 and the “cleaved RNA product abundance” value under setting [1] was 0.174.

As for “ACAGACGAAGGAGCCGCAAAGAAGTTATTAAGGGATGAATAATCCACCAATATAAATATCTCTCACTTATTTAAA”, the “cleaved RNA product abundance” value runs as follows: under setting [2], 0.186; under setting [1], 0.142.

On to “ACAGACGAAGGAGCCGCAAAGAAGTTATTAAGGGATGAATAATCCATAAATATAAATATCTCTCACTTATTTAAA”, for which the “cleaved RNA product abundance” value is, setting by setting: under setting [2], 0.17; under setting [1], 0.261.

For “ACAGACGAAGGAGCCGCAAAGAAGTTATTAAGGGATGAATAATCCATCAAAATAAATATCTCTCACTTATTTAAA”, the “cleaved RNA product abundance” value runs as follows: under setting [2], 0.132; under setting [1], 0.221.

For the sequence “ACAGACGAAGGAGCCGCAAAGAAGTTATTAAGGGATGAATAATCCATCAACATAAATATCTCTCACTTATTTAAA”, the “cleaved RNA product abundance” value under setting [2] came out at 0.164.

With “ACAGACGAAGGAGCCGCAAAGAAGTTATTAAGGGATGAATAATCCATCAATAAAAATATCTCTCACTTATTTAAA”, the “cleaved RNA product abundance” value is, setting by setting: under setting [2], 0.11; under setting [1], 0.107.

Take “ACAGACGAAGGAGCCGCAAAGAAGTTATTAAGGGATGAATAATCCATCAATACAAATATCTCTCACTTATTTAAA”: the “cleaved RNA product abundance” value under setting [1] turned out to be 0.0901.

Turning to “ACAGACGAAGGAGCCGCAAAGAAGTTATTAAGGGATGAATAATCCATCAATAGAAATATCTCTCACTTATTTAAA”, the “cleaved RNA product abundance” value reads like this: under setting [2], 0.0728; under setting [1], 0.0602.

For the sequence “ACAGACGAAGGAGCCGCAAAGAAGTTATTAAGGGATGAATAATCCATCAATATAAAAATCTCTCACTTATTTAAA”, the “cleaved RNA product abundance” value under setting [1] was 0.145.

Turning to “ACAGACGAAGGAGCCGCAAAGAAGTTATTAAGGGATGAATAATCCATCAATATAAATAACTCTCACTTATTTAAA”, under setting [1], the “cleaved RNA product abundance” value was 0.185.

As to “ACAGACGAAGGAGCCGCAAAGAAGTTATTAAGGGATGAATAATCCATCAATATAAATATCTCTCACTTATTTAAA”, the “cleaved RNA product abundance” value is, setting by setting: under setting [2], 0.184; under setting [1], 0.23; under setting [3], 0.201.

As to “ACAGACGAAGGAGCCGCAAAGAAGTTATTAAGGGATGAATAATCCATCAATATAAATATTTCTCACTTATTTAAA”, under setting [1], the “cleaved RNA product abundance” value is 0.286.

Take “ACAGACGAAGGAGCCGCAAAGAAGTTATTAAGGGATGAATAATCCATCAATATAAATCTCTCTCACTTATTTAAA”: the “cleaved RNA product abundance” value under setting [1] is 0.17.

Consider “ACAGACGAAGGAGCCGCAAAGAAGTTATTAAGGGATGAATAATCCATCAATATAAGTATCTCTCACTTATTTAAA”, for which, under setting [1], the “cleaved RNA product abundance” value worked out at 0.0774.

Regarding “ACAGACGAAGGAGCCGCAAAGAAGTTATTAAGGGATGAATAATCCATCAATATACATATCTCTCACTTATTTAAA”, the “cleaved RNA product abundance” value under setting [1] was found to be 0.296.

With “ACAGACGAAGGAGCCGCAAAGAAGTTATTAAGGGATGAATAATCCATCAATATATATATCTCTCACTTATTTAAA”, the “cleaved RNA product abundance” value was determined as 0.19 under setting [2] and 0.191 under setting [1].

With “ACAGACGAAGGAGCCGCAAAGAAGTTATTAAGGGATGAATAATCCATCAATGTAAATATCTCTCACTTATTTAAA”, the “cleaved RNA product abundance” value under setting [2] stood at 0.0896 and the “cleaved RNA product abundance” value under setting [1] was determined as 0.0513.

In the case of “ACAGACGAAGGAGCCGCAAAGAAGTTATTAAGGGATGAATAATCCATCAATTTAAATATCTCTCACTTATTTAAA”, the “cleaved RNA product abundance” value under setting [1] is 0.13.

Take “ACAGACGAAGGAGCCGCAAAGAAGTTATTAAGGGATGAATAATCCATCATTATAAATATCTCTCACTTATTTAAA”: the “cleaved RNA product abundance” value under setting [2] worked out at 0.158.

Consider “ACAGACGAAGGAGCCGCAAAGAAGTTATTAAGGGATGAATAATCCATCCATATAAATATCTCTCACTTATTTAAA”, for which the “cleaved RNA product abundance” value under setting [1] is 0.222.

Regarding “ACAGACGAAGGAGCCGCAAAGAAGTTATTAAGGGATGAATAATCCATCGATATAAATATCTCTCACTTATTTAAA”, the “cleaved RNA product abundance” value under setting [1] is 0.112.

In the case of “ACAGACGAAGGAGCCGCAAAGAAGTTATTAAGGGATGAATAATCCATCTATATAAATATCTCTCACTTATTTAAA”, the “cleaved RNA product abundance” value under setting [2] was 0.191.

For “ACAGACGAAGGAGCCGCAAAGAAGTTATTAAGGGATGAATAATCCATGAATATAAATATCTCTCACTTATTTAAA”, the “cleaved RNA product abundance” value under setting [1] turned out to be 0.18.

Regarding “ACAGACGAAGGAGCCGCAAAGAAGTTATTAAGGGATGAATAATCCATTAATATAAATATCTCTCACTTATTTAAA”, the “cleaved RNA product abundance” value stood at 0.766 under setting [2], 0.688 under setting [1] and 0.984 under setting [3].

Take “ACAGACGAAGGAGCCGCAAAGAAGTTATTAAGGGATGAATAATCCCAAAATATAAATATCTCTCACTTATTTAAA”: the “cleaved RNA product abundance” value amounted to 0.306 under setting [2] and 0.31 under setting [1].

Turning to “ACAGACGAAGGAGCCGCAAAGAAGTTATTAAGGGATGAATAATCCCACAAAATAAATATCTCTCACTTATTTAAA”, under setting [1], the “cleaved RNA product abundance” value was 0.256.

With “ACAGACGAAGGAGCCGCAAAGAAGTTATTAAGGGATGAATAATCCCACAAGATAAATATCTCTCACTTATTTAAA”, the “cleaved RNA product abundance” value turned out to be 0.158 under setting [2] and 0.187 under setting [1].

“ACAGACGAAGGAGCCGCAAAGAAGTTATTAAGGGATGAATAATCCCACAATATAAAAATCTCTCACTTATTTAAA”: the “cleaved RNA product abundance” value under setting [1] is 0.25.

For “ACAGACGAAGGAGCCGCAAAGAAGTTATTAAGGGATGAATAATCCCACAATATAAACATCTCTCACTTATTTAAA”, the “cleaved RNA product abundance” value under setting [1] is 0.277.

On to “ACAGACGAAGGAGCCGCAAAGAAGTTATTAAGGGATGAATAATCCCACAATATAAATAACTCTCACTTATTTAAA”, for which the “cleaved RNA product abundance” value under setting [2] is 0.231.

In the case of “ACAGACGAAGGAGCCGCAAAGAAGTTATTAAGGGATGAATAATCCCACAATATAAATATCTCTCACTTATTTAAA”, the “cleaved RNA product abundance” value by setting is: under setting [2], 0.204; under setting [1], 0.279; under setting [3], 0.271.

For “ACAGACGAAGGAGCCGCAAAGAAGTTATTAAGGGATGAATAATCCCACAATATAAATATTTCTCACTTATTTAAA”, the “cleaved RNA product abundance” value under setting [1] stood at 0.386.

For “ACAGACGAAGGAGCCGCAAAGAAGTTATTAAGGGATGAATAATCCCACAATATACATATCTCTCACTTATTTAAA”, the “cleaved RNA product abundance” value under setting [1] is 0.249.

In the case of “ACAGACGAAGGAGCCGCAAAGAAGTTATTAAGGGATGAATAATCCCACAATATATATATCTCTCACTTATTTAAA”, the “cleaved RNA product abundance” value under setting [1] came to 0.303.
